Reference: PMC6420079

Molecular target: Fur (Salmonella enterica serovar Typhimurium …, UniProt A0A0H3NJ13 1-150)
Assay: fluorescence anisotropy

B1: furbox (dsDNA)
DNA 1: GGGGATAATGATAATCATTATCGGG
DNA 2: CCCGATAATGATTATCATTATCCCC
For B1, the Kd was 56 nM.
